A short description of this data set: self-splicing fitness, log relative to wild type (ln ratio); higher = more splicing; Tetrahymena group I intron in knt gene, E. coli kanamycin selection, DiMSum; sequences stand for … in CUCUCU…GGAGGGAAAAGUUAUCAGGCAUGCACCUGGUAGCUAGUCUUUAAACCAAUAGAUUGCAUCGGUUUAAAAGGCAAGACCGUCAAAUUGCGGGAAAGGGGUCAACAGCCGUUCAGUACCAAGUCUCAGGGGAAACUUUGAGAUGGCCUUGCAAAGGGUAUGGUAAUAAGCUGACGGACAUGGUCCUAACCACGCAGCCAAGUCCUAAGUCAACAGAUCUUCUGUUGAUAUGGAUGCAGUUCACAGACUAAAUGUCGGUCGGGGAAGAUGUAUUCUUCUCAUAAGAUAUAGUCGGACCUCUCCUUAAUGGGAGCUAGCGGAUGAAGUGAUGCAACACUGGAGCCGCUGGGAACUAAUUUGUAUGCGAAAGUAUAUUGAUUAGUUUUGGAGUACUCGUGGUCG
The essentials:
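A randomised library covering all eight P1ex-region intron nucleotides was built with the intron in the knt kanamycin-resistance gene on pET-22b(+) and held in E. coli BL21(DE3). Cells were grown overnight at 37°C or 30°C on LB agar, with or without 25 μg/mL kanamycin, plus 100 μg/mL carbenicillin, 50 μM IPTG and 0.2% rhamnose, and pooled colonies were amplicon-sequenced on an Illumina HiSeq 2500. DiMSum fitness is the error-weighted combination of wild-type-normalised replicate fold changes, kanamycin versus none.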

± gives the uncertainty stated by the source.

In the case of CCCCAGCAAUAUUACGUUUA, the “self-splicing fitness (ln)” value (30 °C) was -3.99 ± 0.16 and the “self-splicing fitness (ln)” value (37 °C) is -2.35 ± 0.15. Taken in the same sequence, the figures for GUAGAGCAAUAUUACGAGUG were -1.59 ± 0.18 and -2.1 ± 0.21. On to AGGCAGCAAUAUUACGCAUA, for which the “self-splicing fitness (ln)” value was -0.866 ± 0.081 (30 °C) and -1.07 ± 0.093 (37 °C). Turning to CGGAAGCAAUAUUACGAACC, the “self-splicing fitness (ln)” value (37 °C) is -1.43 ± 0.41. On to AUAUAGCAAUAUUACGUAGU, for which the “self-splicing fitness (ln)” value is, setting by setting: (30 °C) -2.39 ± 0.14; (37 °C) -0.774 ± 0.14. For CGGAAGCAAUAUUACGCCGG the same measures were -0.726 ± 0.15 and 0.698 ± 0.19. Consider GACAAGCAAUAUUACGCGCU, for which the “self-splicing fitness (ln)” value was -1.29 ± 0.058 (30 °C) and -0.594 ± 0.073 (37 °C). For CAACAGCAAUAUUACGUACC the same measures were -2.7 ± 0.12 and -0.824 ± 0.12. UCCAAGCAAUAUUACGAAUC: for the setting “37 °C”, the “self-splicing fitness (ln)” value is -1.28 ± 0.19. On to GGUAAGCAAUAUUACGCCUA, for which the “self-splicing fitness (ln)” value by setting is: (30 °C) -0.917 ± 0.088; (37 °C) -0.737 ± 0.091.

As to UGACAGCAAUAUUACGAAGA, the “self-splicing fitness (ln)” value runs as follows: (30 °C) -3.28 ± 0.27; (37 °C) -0.756 ± 0.16. Taken in the same sequence, the figures for UAGCAGCAAUAUUACGCAGG were -3.01 ± 0.25 and -2.14 ± 0.25. Taken in the same sequence, the figures for UUAUAGCAAUAUUACGUCCA were -1.54 ± 0.26 and -0.846 ± 0.29. Taken in the same sequence, the figures for AAGUAGCAAUAUUACGUCAU were -2.29 ± 0.13 and -0.997 ± 0.12.

With CCGGAGCAAUAUUACGGUUU, the “self-splicing fitness (ln)” value runs as follows: (30 °C) -3.33 ± 0.25; (37 °C) -2.55 ± 0.18. As to AGGCAGCAAUAUUACGUAAC, the “self-splicing fitness (ln)” value is -2.03 ± 0.12 (30 °C) and -0.934 ± 0.14 (37 °C). For AGUUAGCAAUAUUACGUCCC the same measures were -0.148 ± 0.21 and -0.452 ± 0.2.

For UGAGAGCAAUAUUACGGGGC, the “self-splicing fitness (ln)” value (30 °C) was -2.38 ± 0.39 and the “self-splicing fitness (ln)” value (37 °C) is -2.17 ± 0.46.

Regarding UUGUAGCAAUAUUACGGCGU, the “self-splicing fitness (ln)” value runs as follows: (30 °C) -1.2 ± 0.1; (37 °C) -0.999 ± 0.12.

For the sequence GCCAAGCAAUAUUACGUGGU, the “self-splicing fitness (ln)” value is, setting by setting: (30 °C) -3.65 ± 0.13; (37 °C) -3.27 ± 0.17. Taken in the same sequence, the figures for UAUUAGCAAUAUUACGGUGC were -3.77 ± 0.3 and -1.84 ± 0.23. As for UCCCAGCAAUAUUACGAGGA, the “self-splicing fitness (ln)” value (30 °C) was -2.18 ± 0.11 and the “self-splicing fitness (ln)” value (37 °C) was -1.36 ± 0.12. In the case of GAUGAGCAAUAUUACGGGUA, the “self-splicing fitness (ln)” value is -3.19 ± 0.27 (30 °C) and -1.02 ± 0.17 (37 °C). On to AUCAAGCAAUAUUACGUGGA, for which the “self-splicing fitness (ln)” value reads like this: (30 °C) -2.28 ± 0.14; (37 °C) -1.71 ± 0.12. Taken in the same sequence, the figures for CCUCAGCAAUAUUACGGCUA were -3.62 ± 0.4 and -1.72 ± 0.25. For UUCAAGCAAUAUUACGUCUA the same measures were -0.495 ± 0.09 and 0.538 ± 0.081. For CGACAGCAAUAUUACGCUUA the same measures were -2.2 ± 0.14 and -1.78 ± 0.12.

For AUACAGCAAUAUUACGGGGG, the “self-splicing fitness (ln)” value runs as follows: (30 °C) -3.43 ± 0.25; (37 °C) -2.84 ± 0.25. For UAGUAGCAAUAUUACGUCUG the same measures were 0.113 ± 0.19 and -0.884 ± 0.2. For ACGCAGCAAUAUUACGGCUA the same measures were -0.12 ± 0.064 and -0.215 ± 0.075. For CCAUAGCAAUAUUACGAGGU the same measures were -3.37 ± 0.26 and -2.67 ± 0.23. For GCUAAGCAAUAUUACGAUAG, the “self-splicing fitness (ln)” value is, setting by setting: (30 °C) -1.25 ± 0.13; (37 °C) -1.63 ± 0.17.

Consider UACCAGCAAUAUUACGGACC, for which the “self-splicing fitness (ln)” value by setting is: (30 °C) -0.962 ± 0.071; (37 °C) -0.872 ± 0.086. Taken in the same sequence, the figures for GAGCAGCAAUAUUACGUUAU were -1.77 ± 0.087 and -1.3 ± 0.12. Taken in the same sequence, the figures for CAUUAGCAAUAUUACGUAAA were -2.93 ± 0.15 and -1.34 ± 0.15.

For the sequence CUUAAGCAAUAUUACGUUUA, the “self-splicing fitness (ln)” value runs as follows: (30 °C) -2.81 ± 0.18; (37 °C) -2.6 ± 0.24. Take AACAAGCAAUAUUACGACUU: the “self-splicing fitness (ln)” value (30 °C) was -0.0432 ± 0.046 and the “self-splicing fitness (ln)” value (37 °C) is 0.207 ± 0.064. As for CGCAAGCAAUAUUACGACGC, the “self-splicing fitness (ln)” value reads like this: (30 °C) -3.59 ± 0.2; (37 °C) -2.03 ± 0.16.

These data come from the supplement of paper PMC7877785.
